# T1: Full-length(FL)-WRS, human tryptophanyl-tRNA synthetase (NP_004175.2) (human, UniProt P23381 2-471)
# T1 construct: In the western blot and immunoprecipitation the target was endogenous WRS in lysates of human cells (HeLa, HCT116, HEK293F); also called Human WRS; TrpRS
# T1 sequence: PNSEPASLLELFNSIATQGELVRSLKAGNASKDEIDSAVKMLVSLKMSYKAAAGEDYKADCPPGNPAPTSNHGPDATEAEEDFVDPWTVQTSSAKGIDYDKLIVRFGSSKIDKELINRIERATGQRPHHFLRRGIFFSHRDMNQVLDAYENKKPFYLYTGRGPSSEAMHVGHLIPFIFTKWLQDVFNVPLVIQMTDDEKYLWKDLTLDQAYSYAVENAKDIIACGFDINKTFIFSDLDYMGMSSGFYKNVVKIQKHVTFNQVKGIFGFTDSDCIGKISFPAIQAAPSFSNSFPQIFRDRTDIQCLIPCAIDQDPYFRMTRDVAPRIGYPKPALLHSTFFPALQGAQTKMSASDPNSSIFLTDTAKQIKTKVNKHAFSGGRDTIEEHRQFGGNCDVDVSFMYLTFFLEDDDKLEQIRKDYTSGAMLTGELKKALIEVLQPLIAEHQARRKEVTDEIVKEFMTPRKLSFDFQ
# Experiments:
# [1] = molecular target: T1, Full-length(FL)-WRS, human …; assay: SPR (Biacore 2000), FL-WRS immobilised on a CM5 chip, antibody 6.25-100 nM as analyte
# [2] = molecular target: T1, Full-length(FL)-WRS, human …; assay: cell-based or functional assay
# [3] = molecular target: T1, Full-length(FL)-WRS, human …; assay: western blot on HeLa and HCT116 cell lysates, purified scFv detected with anti-HA-HRP
Binder,Kd [1],koff [1],kon [1],EC 50 (inhibition of human WRS-induced TNF-α secretion by differentiated THP-1 macrophages) [2],binding result [3]
"3C6 IgG 단일클론 항체 (anti-WRS(3C6) IgG) (antibody, V domains shown, The variable regions of the 3C6 scFv were converted to IgG (pcDNA3.4 vectors, expressed in HEK293F, purified on protein A); also called 3C6 IgG 항체; WRS(3C6) 항체) VH: EVQLLESGGGLVQPGGSLRLSCAASGFTFSSYDMSWVRQAPGKGLEWVSAISSGGSSIYYADSVKGRFTISRDNSKNTLYLQMNSLRAEDTAVYYCARDVAWDMLGDFDYWGQGTLVTVSS VL: QSVLTQPPSASGTPGQRVTISCTGSSSNIGSNYVYWYQQLPGTAPKLLIYANSHRPSGVPDRFSGSKSGTSASLAISGLRSEDEADYYCGAWDDSLSAYVFGGGTKLTV",17.2 nM,0.0011 s⁻¹,64100 M⁻¹ s⁻¹,0.035 nM,
"3C6 scFv (scFv, The scFv comes from an HA-tagged human scFv phage library; It was expressed in the E. coli periplasm, purified on Ni-NTA and detected with anti-HA-HRP; also called 3C6 scFv clone) scFv: EVQLLESGGGLVQPGGSLRLSCAASGFTFSSYDMSWVRQAPGKGLEWVSAISSGGSSIYYADSVKGRFTISRDNSKNTLYLQMNSLRAEDTAVYYCARDVAWDMLGDFDYWGQGTLVTVSSGGGGSGGGGSGGGGSQSVLTQPPSASGTPGQRVTISCTGSSSNIGSNYVYWYQQLPGTAPKLLIYANSHRPSGVPDRFSGSKSGTSASLAISGLRSEDEADYYCGAWDDSLSAYVFGGGTKLTV",,,,,binds

# From patent KR20210010236A (dated 2021)
